These results are taken from publication PMC2828957 (Molecular Biology of the Cell, 2010).

The labels stand for the following.
T1: GST-Sec63C (complete C-terminal domain of human Sec63, residues 210-760, N-terminal GST) (human, UniProt Q9UGP8 210-760)
T1 sequence (looked up): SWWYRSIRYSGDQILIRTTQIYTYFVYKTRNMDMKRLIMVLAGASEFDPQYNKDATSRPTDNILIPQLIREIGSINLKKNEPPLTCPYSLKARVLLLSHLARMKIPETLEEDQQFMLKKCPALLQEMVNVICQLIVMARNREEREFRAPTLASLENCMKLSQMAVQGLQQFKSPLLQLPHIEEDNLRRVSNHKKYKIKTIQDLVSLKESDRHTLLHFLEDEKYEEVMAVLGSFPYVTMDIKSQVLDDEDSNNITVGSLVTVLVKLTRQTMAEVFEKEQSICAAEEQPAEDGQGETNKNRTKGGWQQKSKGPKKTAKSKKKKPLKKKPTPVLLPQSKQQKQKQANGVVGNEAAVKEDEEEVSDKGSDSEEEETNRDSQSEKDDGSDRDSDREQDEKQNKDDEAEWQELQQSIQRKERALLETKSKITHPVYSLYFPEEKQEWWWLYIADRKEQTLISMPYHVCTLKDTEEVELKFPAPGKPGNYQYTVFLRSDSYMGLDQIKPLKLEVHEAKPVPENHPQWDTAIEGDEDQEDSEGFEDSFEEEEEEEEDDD

B1: Sec62N-ΔN10-ΔC40 (human Sec62 residues 11-155, C-terminal hexa-histidine tag) (domain or fragment, UniProt Q99442 11-155, looked up)
chain: IQEVGEPSKEEKAVAKYLRFNCPTKSTNMMGHRVDYFIASKAVDCLLDSKWAKAKKGEEALFTTRESVVDYCNRLLKKQFFHRALKVMKMKYDKDIKKEKDKGKAESGKEEDKKSKKENIKDEKTKKEKEKKKDGEKEESKKEET
B2: human Sec62N (N-terminal domain of human Sec62, residues 1-195, C-terminal hexa-histidine tag) (domain or fragment, UniProt Q99442 1-195, looked up)
chain: MAERRRHKKRIQEVGEPSKEEKAVAKYLRFNCPTKSTNMMGHRVDYFIASKAVDCLLDSKWAKAKKGEEALFTTRESVVDYCNRLLKKQFFHRALKVMKMKYDKDIKKEKDKGKAESGKEEDKKSKKENIKDEKTKKEKEKKKDGEKEESKKEETPGTPKKKETKKKFKLEPHDDQVFLDGNEVYVWIYDPVHFK

Assay [1] has as its target T1, GST-Sec63C (complete C-terminal domain …). Kind of assay: pull-down.
For assay [2], the target named is B2. Kind of assay: pull-down.
Assay [3] concerns the target B1. As to the kind of experiment: pull-down.
The target of assay [4] is T1, GST-Sec63C (complete C-terminal domain …). As to the kind of experiment: SPR. A general note: SPR reads the build-up and loss of mass on a sensor chip optically.

By Kd is commonly meant the constant that tells how readily two partners part at equilibrium. Low values mean higher affinity, high ones lower affinity.

As for B1, in assay [1], the binding result is on record as “binds”.
Turning to EGDEDQEDSEGFEDSFEEEEEEEEDDD (domain or fragment, UniProt Q9UGP8 734-760, looked up) [GST-Sec63C26 (C-terminal 26 amino acid residues of human Sec63, residues 734-760, N-terminal GST)], the binding result in assay [2] and in assay [3] was “binds” throughout.
Take B2: in assay [4], the Kd was 4.78 nM.
